Source: patent US20150018233A1 (FRED HUTCHINSON CANCER RESEARCH CENTER, published 2015)

Experiments:
[1] = molecular target: T1, M2 muscarinic acetylcholine receptor (M2AchR), rat (rat, UniProt P10980 1-466); experiment: cell-based or functional assay
T1 sequence (looked up): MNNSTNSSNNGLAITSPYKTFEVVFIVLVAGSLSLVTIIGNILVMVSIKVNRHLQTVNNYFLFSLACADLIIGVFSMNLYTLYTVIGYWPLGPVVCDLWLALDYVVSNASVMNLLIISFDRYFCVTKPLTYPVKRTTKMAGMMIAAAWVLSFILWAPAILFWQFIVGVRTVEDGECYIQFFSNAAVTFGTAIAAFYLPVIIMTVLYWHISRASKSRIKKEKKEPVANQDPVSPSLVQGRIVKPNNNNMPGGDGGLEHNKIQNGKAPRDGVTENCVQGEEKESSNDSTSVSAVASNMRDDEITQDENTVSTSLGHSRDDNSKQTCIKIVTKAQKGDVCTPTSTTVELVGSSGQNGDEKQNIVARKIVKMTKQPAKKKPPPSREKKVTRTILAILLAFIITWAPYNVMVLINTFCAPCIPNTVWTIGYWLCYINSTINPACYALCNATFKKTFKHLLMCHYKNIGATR

[2] = molecular target: sweet receptor heterodimer (T1 R2/T1 R3); experiment: cell-based or functional assay

B1: Gαs-Gαi-13 (SEQ ID NO: 5) (other)
chain: MGCLGNSKTEDQRNEEKAQREANKKIEKQLQKDKQVYRATHRLLLLGAGESGKSTIVKQMRILHVNGFNGEGGEEDVPDYASNSDGEKATKVQDIKNNLKEAIETIVAAMSNLVPPVELANPENQFRVDYILSVMNVPNFDFPPEFYEHAKALWEDEGVRACYERSNEYQLIDCAQYFLDKIDVIKQADYVPSDQDLLRCRVLTSGIFETKFQVDKVNFHMFDVGGQRDERRKWIQCFNDVTAIIFVVASSSYNMVIREDNQTNRLQEALNLFKSIWNNRWLRTISVILFLNKQDLLAEKVLAGKSKIEDYFPEFARYTTPEDATPEPGEDPRVTRAKYFIRDEFLRISTASGDGRHYCYPHFTCAVDTENIRRVFNDCRDVIIKNNLKDCGLF
[1]
  increase in SEAP activity in response to 10 uM acetylcholine (CRE-SEAP reporter, HEK-293): 10 fold
  increase in SEAP activity, cells transiently expressing the chimera (10 uM acetylcholine): ~10 fold
[2]
  increase in SEAP activity (5 mM saccharin): ~2 fold

B2: Gαs-Gαz-13 (SEQ ID NO: 6) (other)
chain: MGCLGNSKTEDQRNEEKAQREANKKIEKQLQKDKQVYRATHRLLLLGAGESGKSTIVKQMRILHVNGFNGEGGEEDVPDYASNSDGEKATKVQDIKNNLKEAIETIVAAMSNLVPPVELANPENQFRVDYILSVMNVPNFDFPPEFYEHAKALWEDEGVRACYERSNEYQLIDCAQYFLDKIDVIKQADYVPSDQDLLRCRVLTSGIFETKFQVDKVNFHMFDVGGQRDERRKWIQCFNDVTAIIFVVASSSYNMVIREDNQTNRLQEALNLFKSIWNNRWLRTISVILFLNKQDLLAEKVLAGKSKIEDYFPEFARYTTPEDATPEPGEDPRVTRAKYFIRDEFLRISTASGDGRHYCYPHFTCAVDTENIRRVFNDCRDVIIQNNLKYIGLC
[1]
  increase in SEAP activity in response to the 10 uM acetylcholine ligand: ~2 fold

B3: Gαs-Gα15-13 (SEQ ID NO: 7) (other)
chain: MGCLGNSKTEDQRNEEKAQREANKKIEKQLQKDKQVYRATHRLLLLGAGESGKSTIVKQMRILHVNGFNGEGGEEDVPDYASNSDGEKATKVQDIKNNLKEAIETIVAAMSNLVPPVELANPENQFRVDYILSVMNVPNFDFPPEFYEHAKALWEDEGVRACYERSNEYQLIDCAQYFLDKIDVIKQADYVPSDQDLLRCRVLTSGIFETKFQVDKVNFHMFDVGGQRDERRKWIQCFNDVTAIIFVVASSSYNMVIREDNQTNRLQEALNLFKSIWNNRWLRTISVILFLNKQDLLAEKVLAGKSKIEDYFPEFARYTTPEDATPEPGEDPRVTRAKYFIRDEFLRISTASGDGRHYCYPHFTCAVDTENIRRVFNDCRDSVLARYLDEINLL
[1]
  increase in SEAP activity in response to the 10 uM acetylcholine ligand: ~2 fold
